Among the data in paper PMC5552922 are binding values, retold here.

In data set [1] the target is T1, DdrOC (DdrO) (Deinococcus deserti) (UniProt C1CYP4).
T1 sequence: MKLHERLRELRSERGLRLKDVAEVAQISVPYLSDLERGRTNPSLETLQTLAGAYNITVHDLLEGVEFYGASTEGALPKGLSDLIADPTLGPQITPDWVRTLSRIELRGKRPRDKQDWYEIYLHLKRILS
The experiment in a line: EMSA. The conditions noted are these: EMSA: 10 mM Tris-HCl pH 7.4, 60 mM NaCl, 1 mM DTT, 5% glycerol, 200 ng DNA in 20 ul, 30 min room temperature; 5% PAGE in TAE at 4 C, ethidium bromide. In general terms: A gel shift assay detects complexes by their altered migration in electrophoresis.

Data set [2] has as its target T2, DdrOC cleaved by IrrE (Deinococcus deserti) (UniProt C1CYP4).
T2 sequence: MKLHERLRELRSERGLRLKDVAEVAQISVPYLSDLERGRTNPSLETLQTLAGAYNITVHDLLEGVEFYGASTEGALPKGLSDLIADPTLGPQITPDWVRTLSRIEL
The experiment in a line: EMSA. The conditions noted are these: EMSA: 10 mM Tris-HCl pH 7.4, 60 mM NaCl, 1 mM DTT, 5% glycerol, 200 ng DNA in 20 ul, 30 min room temperature; 5% PAGE in TAE at 4 C, ethidium bromide.

With “TATAGGTACCGGTACTCCTTCCTGTCCGACAGCAGACAGCGAGGCAAAGCATGAATAGTCGGTCTTAAGGGGGTAAAAGCCTTCTTGATTACGATCATAGCAGATCGTCTCGTGGTGGGCAAGAAGAACTCCTCTCTATTCTGTATTGACCGTACCGGGAAGCGGTGTTACACTCCAACCAAGGGTGCCCGATTCTGCCTACAGGCAAACGCTCCCCCAGGCGGCCCGCCCGGTCAGCGCACAGTCCCGGTCGCTCAAAGCTGCAGTATC (double strand) [ddrOC-ddrQ intergenic region]”, the binding result in data set [1] is “binds”; in data set [2], “no binding”.
